{
  "source": "patent US20080193431",
  "target": "T1, Ac-DEVD-CHO",
  "T1 chain": "DEVD",
  "data": [
    {"protein": "caspase-3 (protein) SGISLDNSYKMDYPEMGLCIIINNKNFHKSTGMTSRSGTDVDAANLRETFRNLKYEVRNKNDLTREEIVELMRDVSKEDHSKRSSFVCVLLSHGEEGIIFGTNGPVDLKKITNFFRGDRCRSLTGKPKLFIIQACRGTELDCGIETDSGVDDDMACHKIPVEADFLYAYSTAPGYYSWRNSKDGSWFIQSLCAMLKQYADKLEFMHILTRVNRKVATEFESFSFDATFHAKKQIPCIVSMLTKELYFYH", "values": [
      {"measurement": "enzyme activity (caspase-3 cleavage of PPC, HPLC)", "result": "completely blocked the enzyme activity"}
    ]}
  ]
}
